Molecular target: T1, Flag-PKN3 wt (N-terminal Flag epitope-tagged full-length kinase active human PKN3) (human, UniProt Q6P5Z2 1-889)
T1 construct: Expressed from pcDNA3 in HEK293T or PC3 cells and pulled down with anti-Flag M2 resin; The kinase-dead version carries K588R; also called Flag-tagged PKN3; kinase-active form of PKN3
Test: anti-Flag M2 co-immunoprecipitation from transfected HEK293T cells, Western blot
Method: Thus, PKN3, RhoC and PDK1 form a ternary complex (“PPRC complex.”)
For immunoprecipitations with Flag (FIG. 4B), HEK293T cells (5×10⁵ cells/10-cm tissue culture dish) were either singly transfected or cotransfected with the indicated plasmids (Flag-PKN3 wt [full-length kinase active], Flag-PKN3 kd [kinase-dead PKN3], Myc-RhoA, Myc-RhoB or Myc-RhoC) by FUGENE® transfection reagent. After 6 hours of incubation at 37° C. in a 5% CO₂ incubator, cells were washed twice in serum-free Dulbecco's modified Eagle's medium (DMEM), and fresh medium (DMEM, 10% fetal bovine serum) was added to the cells for a further 48 h of incubation. Cells were washed with phosphate-buffered saline (PBS) and lysed in 0.5 ml of lysis buffer (50 mM Tris-HCl [pH 7.5], 150 mM NaCl, 10 mM β-glycerolphosphate, 10% glycerol, 1% Triton X-100, 1 mM Na₃VO₄, 1 mM NaF, and protease inhibitors [Roche Molecular Biochemicals]) for 30 minutes on ice. […] The beads were then washed three times with TBS buffer (50 mM Tris-HCl [pH 7.5], 150 mM NaCl), and bound proteins were eluted with TBS buffer containing 10% glycerol, 1 mM DTT and 200 μg of Flag peptide (Sigma)/ml. The bound products were visualized by Western blot analysis (FIG. 4).

T1 sequence (Q6P5Z2 other isoform, or with tags, fused parts or gaps limits assumed): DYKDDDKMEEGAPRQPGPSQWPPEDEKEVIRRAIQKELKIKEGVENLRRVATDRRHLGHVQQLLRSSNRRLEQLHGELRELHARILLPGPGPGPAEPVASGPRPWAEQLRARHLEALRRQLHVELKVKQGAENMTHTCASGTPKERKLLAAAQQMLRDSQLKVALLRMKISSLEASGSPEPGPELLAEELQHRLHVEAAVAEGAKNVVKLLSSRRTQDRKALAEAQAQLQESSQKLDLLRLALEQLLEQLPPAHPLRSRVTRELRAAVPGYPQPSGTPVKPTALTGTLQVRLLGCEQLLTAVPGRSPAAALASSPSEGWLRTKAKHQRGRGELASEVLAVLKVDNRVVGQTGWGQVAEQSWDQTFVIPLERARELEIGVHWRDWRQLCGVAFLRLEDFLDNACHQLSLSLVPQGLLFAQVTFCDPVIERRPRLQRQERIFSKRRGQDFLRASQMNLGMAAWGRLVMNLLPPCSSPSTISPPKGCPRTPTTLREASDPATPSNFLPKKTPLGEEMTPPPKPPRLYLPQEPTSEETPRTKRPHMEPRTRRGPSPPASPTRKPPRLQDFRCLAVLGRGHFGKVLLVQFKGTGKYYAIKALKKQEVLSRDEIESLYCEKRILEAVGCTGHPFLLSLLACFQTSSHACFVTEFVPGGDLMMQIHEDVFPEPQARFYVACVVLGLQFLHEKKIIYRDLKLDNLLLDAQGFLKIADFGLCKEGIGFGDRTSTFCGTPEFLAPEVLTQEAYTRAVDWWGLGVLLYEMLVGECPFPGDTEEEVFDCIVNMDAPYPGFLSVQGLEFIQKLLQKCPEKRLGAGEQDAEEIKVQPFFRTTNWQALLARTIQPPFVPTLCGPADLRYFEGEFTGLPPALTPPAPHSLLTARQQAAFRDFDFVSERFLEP

B1: phosphoinositide-dependent kinase-1 (PDK1) (enzyme, UniProt O15530 1-556, looked up)
chain: MARTTSQLYDAVPIQSSVVLCSCPSPSMVRTQTESSTPPGIPGGSRQGPAMDGTAAEPRPGAGSLQHAQPPPQPRKKRPEDFKFGKILGEGSFSTVVLARELATSREYAIKILEKRHIIKENKVPYVTRERDVMSRLDHPFFVKLYFTFQDDEKLYFGLSYAKNGELLKYIRKIGSFDETCTRFYTAEIVSALEYLHGKGIIHRDLKPENILLNEDMHIQITDFGTAKVLSPESKQARANSFVGTAQYVSPELLTEKSACKSSDLWALGCIIYQLVAGLPPFRAGNEYLIFQKIIKLEYDFPEKFFPKARDLVEKLLVLDATKRLGCEEMEGYGPLKAHPFFESVTWENLHQQTPPKLTAYLPAMSEDDEDCYGNYDNLLSQFGCMQVSSSSSSHSLSASDTGLPQRSGSNIEQYIHDLDSNSFELDLQFSEDEKRLLLEKQAGGNPWHQFVENNLILKMGPVDKRKGLFARRRQLLLTEGPHLYYVDPVNKVLKGEIPWSQELRPEAKNFKTFFVHTPNRTYYLMDPSGNAHKWCRKIQEVWRQRYQSHPDAAVQ
notes: It co-precipitated with Flag-PKN3 from cell lysates
B1: binds.

Source: US20120100561A1 (published 2012)
